From PMC3538841

Key:
Assay in all cases: negative stain EM reconstruction
[1] = target: A/Hong Kong/1/1968 (H3N2) HA (influenza A virus A/Hong Kong/1/1968 (H3N2)) (UniProt Q91MA7)
[2] = target: A/Netherlands/219/2003 (H7N7) HA (influenza A virus A/Netherlands/219/2003 (H7N7)) (UniProt Q6VMK1)
[3] = target: A/South Carolina/1/1918 (H1N1) HA (influenza A virus A/South Carolina/1/1918 (H1N1)) (UniProt Q9WFX3)
[4] = target: Wisc66/H9 HA (influenza A virus, Wisc66 (H9))

Measured: stoichiometry N (Fabs per HA trimer)

Fab CR9114
3: all assays above
